T1: N-CoR RID2 peptide (Homo sapiens)
T1 chain: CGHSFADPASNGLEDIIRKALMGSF

T2: N-CoR RID2 peptide (Homo sapiens, 209 nM ATRA, Rhodamine Red-labelled peptide)
T2 chain: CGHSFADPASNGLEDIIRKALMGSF

T3: N-CoR RID2 peptide (Homo sapiens, Rhodamine Red-labelled peptide)
T3 chain: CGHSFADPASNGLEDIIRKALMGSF

T4: ACTR NR box 3 peptide (Homo sapiens, 521 nM ATRA, Rhodamine Red-labelled peptide)
T4 chain: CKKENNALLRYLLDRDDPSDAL

T5: ACTR NR box 3 peptide (Homo sapiens, Rhodamine Red-labelled peptide)
T5 chain: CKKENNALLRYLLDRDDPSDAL


Key:
Assay in all cases: fluorescence anisotropy
[1] = target: T1, N-CoR RID2 peptide
[2] = target: T2, N-CoR RID2 peptide
[3] = target: T3, N-CoR RID2 peptide
[4] = target: T4, ACTR NR box 3 peptide
[5] = target: T5, ACTR NR box 3 peptide

Binder	Kd [1]	Kd [2]	Kd [3]	Kd [4]	Kd [5]
RARα LBD (protein) ESYTLTPEVGELIEKVRKAHQETFPALCQLGKYTTNNSSEQRVSLDIDLWDKFSELSTKCIIKTVEFAKQLPGFTTLTIADQITLLKAACLDILILRICTRYTPEQDTMTFSDGLTLNRTQMHNAGFGPLTDLVFAFANQLLPLEMDDAETGLLSAICLICGDRQDLEQPDRVDMLQEPLLEALKVYVRKRRPSRPHMFPKMLMKITDLRSISAKGAERVITPKMEIPGSMPPLIQEMLENSEGLD	12.2 µM				
RARα LBD (protein) ESYTLTPEVGELIEKVRKAHQETFPALCQLGKYTTNNSSEQRVSLDIDLWDKFSELSTKCIIKTVEFAKQLPGFTTLTIADQITLLKAACLDILILRICTRYTPEQDTMTFSDGLTLNRTQMHNAGFGPLTDLVFAFANQLLPLEMDDAETGLLSAICLICGDRQDLEQPDRVDMLQEPLLEALKVYVRKRRPSRPHMFPKMLMKITDLRSISAKGAERVITLKMEIPGSMPPLIQEMLENSEGLD		74.2 µM	18.9 µM	55 µM	155 µM

Further lines, results first:

Kd [1]	Kd [2]	Kd [3]	Kd [4]	Kd [5]	Binder
18.6 µM					RARα LBD (protein) ESYTLTPEVGELIEKVRKAHQETFPALCQLGKYTTNNSSEQRVSLDIDLWDKFSELSTKCIIKTVEFAKQLPGFTTLTIADQITLLKAACLDILILRICTRYTPEQDTMTFSDGLTLNRTQLHNAGFGPLTDLVFAFANQLLPLEMDDAETGLLSAICLICGDRQDLEQPDRVDMLQEPLLEALKVYVRKRRPSRPHMFPKMLMKITDLRSISAKGAERVITLKMEIPGSMPPLIQEMLENSEGLD
10.9 µM					RARα LBD (protein) ESYTLTPEVGELIEKVRKAHQETFPALCQLGKYTTNNSSEQRVSLDIDLWDKFSELSTKCIIKTVEFAKQLPGFTTLTIADQITLLKAACLDILILRICTRYTPEQDTMTFSDGLTLNRTQMHNAGFGPLTDLVFAFANQLLPLEMDDAETGLLSAICLICGDRQDLEQPDRVDMLQEPLLEALKVYVRKRRPSRPHMFPKMLMKITDLRSISAKGAERVITLKMEIPGSMPPLIQETLENSEGLD
